Test results as given in patent publication US20020051988A1 (TRUSTEES OF BOSTON UNIVERSITY, published 2002).
Values belong to the molecule of their own block, whether it stands above or below them. Where no end group is shown, it is not given here.

Columns and labels:
[1] = target: p75 nerve growth factor receptor (p75^NTR) overexpressed on permanently transfected NIH 3T3 fibroblasts (Homo sapiens (Human)) (UniProt P08138); assay: cell-based or functional assay
[2] = target: p75 nerve growth factor receptor (p75^NTR) on cultured normal human melanocytes (human) (UniProt P08138); assay: cell-based or functional assay
[3] = target: p75 nerve growth factor receptor (p75^NTR) overexpressed on permanently transfected NIH 3T3 fibroblasts (Homo sapiens (Human)) (UniProt P08138); assay: competition with ^125I β-amyloid 1-40 on p75^NTR-NIH 3T3 cells, 2 h at 4 C, NGF 0-100 ng/ml; value at 100 ng/ml NGF
[4] = target: T1, p75 nerve growth factor receptor (p75^NTR) overexpressed on permanently transfected NIH 3T3 fibroblasts (Homo sapiens (Human), UniProt P08138 29-427); assay: displacement of ^125I β-amyloid 1-40 from p75^NTR 3T3 cells, 4 h at 4 C, peptide 0-400 nM
T1 construct: also called 75 kD neurotrophin receptor
T1 sequence: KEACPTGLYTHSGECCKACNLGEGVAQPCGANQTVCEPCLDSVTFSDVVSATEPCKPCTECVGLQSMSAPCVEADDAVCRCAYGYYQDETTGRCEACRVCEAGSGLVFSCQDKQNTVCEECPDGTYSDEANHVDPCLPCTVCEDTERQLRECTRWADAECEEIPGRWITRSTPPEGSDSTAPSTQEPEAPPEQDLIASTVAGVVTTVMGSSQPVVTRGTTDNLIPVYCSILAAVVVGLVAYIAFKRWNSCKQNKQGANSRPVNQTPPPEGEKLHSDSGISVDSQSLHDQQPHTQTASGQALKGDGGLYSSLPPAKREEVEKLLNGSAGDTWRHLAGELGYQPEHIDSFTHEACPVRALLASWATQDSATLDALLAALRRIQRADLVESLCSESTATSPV

decrease in cell yield [1]: 60% | Bax induction [2]: 3 fold | Bax level as compared to the 40-1 peptide [2]: 270% | decrease in cell yield [2]: 59% | decrease in melanocyte yield [2]: > 50%
Molecule: β-amyloid 1-40 peptide (from UniProt P05067 1-40)

Bax induction [2]: 3 fold | Bax level as compared to the 40-1 peptide [2]: 160%
Molecule: β-amyloid 25-35 peptide (from UniProt P05067 696-706)

maximum % inhibition of ^125I labeled β-amyloid binding [3]: 38%
Molecule: Nerve growth factor (NGF) (ligand)

IC50 [4]: 25 nM
B1: cyclic peptide CVGSNKGAIC (SEQ ID NO: 4) (peptide)
peptide: CVGSNKGAIC
modifications: also: cyclic peptide, ring closure not given here
notes: also called cyclic decapeptide; cold peptide
